Legend:
[1] = molecular target: T1, histone H3K9me3 peptide H3K9me3 peptide (Homo sapiens, UniProt P68431, K9me3); assay: ITC
T1 chain: ARTKQTARKSTGGKA

CHD4 ABM = CHD4 ABM (Homo sapiens, UniProt Q14839); assay: ITC
Sequence of CHD4 ABM (Q14839 100-140): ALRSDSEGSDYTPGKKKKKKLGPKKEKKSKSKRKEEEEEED

Kd [1]: ~4 µM
Kd (CHD4 ABM): ~46 µM
B1: ATRX ADD (protein)
chain: NLKKRGEDGLHGIVSCTACGQQVNHFQKDSIYRHPSLQVLICKNCFKYYMSDDISRDSDGMDEQCRWCAEGGNLICCDFCHNAFCKKCILRNLGRKELSTIMDENNQWYCYICHPEPLLDLVTACNSVFENLEQLLQQNKKKIK

Reference: article PMC12900691 (2025)
